Test results from patent publication US20190233528A1 (published 2019).
Read-outs that look alike come from different tables or passages of the source.

What was measured:
[1] = biological target: T1, human CD70 expressed on parental (WT) Jurkat cells (human, UniProt P32970 1-193); experiment: cell-based or functional assay
T1 sequence: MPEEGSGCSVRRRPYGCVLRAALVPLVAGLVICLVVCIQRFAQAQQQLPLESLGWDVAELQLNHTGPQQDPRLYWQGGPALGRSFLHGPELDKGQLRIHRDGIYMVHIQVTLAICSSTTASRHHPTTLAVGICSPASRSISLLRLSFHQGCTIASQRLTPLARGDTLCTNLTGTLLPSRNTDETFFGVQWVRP

[2] = biological target: T2, recombinant biotinylated human CD70 protein (human, UniProt P32970 39-193, biotinylated (site not stated)); experiment: flow cytometry: CAR-transduced Jurkat cells incubated with recombinant biotinylated human CD70, streptavidin-PE; percent of cells binding
T2 construct: also called recombinant biotinylated hCD70 protein
T2 sequence: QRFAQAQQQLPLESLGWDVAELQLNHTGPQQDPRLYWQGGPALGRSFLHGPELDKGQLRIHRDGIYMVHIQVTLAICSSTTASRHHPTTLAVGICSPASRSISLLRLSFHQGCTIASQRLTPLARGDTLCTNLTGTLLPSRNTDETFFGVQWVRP
Method: (§1) On Day 5, transduced cells were stained with human anti-CD69 antibody conjugated to PE-Cy7 and acquired on a flow cytometer to obtain percentage of CD69+ population for each CAR. […] Activation ratios (WT activation/KO activation) and protein binding were used to rank CARs.
Activation ratio and protein binding of hybridoma CARs were determined in the Jurkat screen and used for in vitro characterization of CARs. Activation ratio was determined by calculating the ratio of the percentage of CD69 expression on WT Jurkat cells transduced with CD70 CAR (WT) to that on CD70 knockout Jurkat cells transduced with CD70 CAR (KO). A higher activation ratio indicates target-dependent activation. […] Protein binding values indicate the percentage of CD3+ CAR T cells that bind to human CD70 protein.

[3] = biological target: T1, human CD70 expressed on parental (WT) …; experiment: cell-based or functional assay; remark: listed apart in the source
[4] = biological target: T2, recombinant biotinylated human CD70 …; experiment: flow cytometry: CAR-transduced Jurkat cells incubated with recombinant biotinylated human CD70, streptavidin-PE; percent of cells binding; remark: listed apart in the source
Method: as §1
Table 7: Activation ratio and protein binding of phage CARs were determined in the Jurkat screen. Activation ratio was used for in vitro characterization of CARs. Activation ratio was determined by calculating the ratio of the percentage of CD69 expression on WT Jurkat cells transduced with CD70 CAR (WT) to that on CD70 knockout Jurkat cells transduced with CD70 CAR (KO). A higher activation ratio indicates target-dependent activation. […] Protein binding values indicate the percentage of CD3+ CAR T cells that bind to human CD70 protein.

B1: 10H10 CD70-specific CAR (other)
chain: EVQLVESGGGLVQPGGSLRLSCAVSGFTFSNHNIHWVRQAPGKGLEWISYISRSSSTIYYADSVKGRFTISRDNAKNSLYLQMNSLRDEDTAVYYCARDHAQWYGMDVWGQGTTVTVSSGGGGSGGGGSGGGGSGGGGSDIQMTQSPSSVSASVGDRVTITCRASQGISSWLAWYQQKPGKAPKVLIYAASSLQSGVPSRFSGSGSGTDFTLTISSLQPEDFATYYCQQAFSFPFTFGPGTKVDIKTTTPAPRPPTPAPTIASQPLSLRPEACRPAAGGAVHTRGLDFACDIYIWAPLAGTCGVLLLSLVITLYCKRGRKKLLYIFKQPFMRPVQTTQEEDGCSCRFPEEEEGGCELRVKFSRSADAPAYQQGQNQLYNELNLGRREEYDVLDKRRGRDPEMGGKPRRKNPQEGLYNELQKDKMAEAYSEIGMKGERRRGKGHDGLYQGLSTATKDTYDALHMQALPPR
notes: Chimeric antigen receptor on transduced Jurkat cells; the signal peptide is left out
Activation ratio (WT/KO) [1]: 7.32 | Protein binding (%) [2]: 17.9%

B2: P16C05 CD70-specific CAR (other)
chain: EVQLVQSGAEVKKPGESLKISCKGSGYSFTDYWIGWVRQMPGKGLEWMGMISPGGSTTIYRPSFQGQVTISADKSISTAYLQWSSLKASDTAMYYCAREMYTGGYGGSWYFDYWGQGTLVTVSSGGGGSGGGGSGGGGSGGGGSELDIQMTQSPSSLSASVGDRVTITCRASQSIGQSLNWYQQKPGKAPKLLIYGASSLQSGVPSRFSGSGSGTDFTLTISSLQPEDFATYYCQQSYSTPITFGQGTKVEIKTTTPAPRPPTPAPTIASQPLSLRPEACRPAAGGAVHTRGLDFACDIYIWAPLAGTCGVLLLSLVITLYCKRGRKKLLYIFKQPFMRPVQTTQEEDGCSCRFPEEEEGGCELRVKFSRSADAPAYQQGQNQLYNELNLGRREEYDVLDKRRGRDPEMGGKPRRKNPQEGLYNELQKDKMAEAYSEIGMKGERRRGKGHDGLYQGLSTATKDTYDALHMQALPPR
notes: as for B1
Activation ratio (WT/KO) [3]: 2.26 | Protein binding (%) [4]: 70.8%

B3: P12F02 CD70-specific CAR (other)
chain: EVQLLESGGGLVQPGGSLRLSCAASGFTFSSYAMSWVRQAPGKGLEWVSTISGTGGTTYYADSVKGRFTISRDNSKNTLYLQMNSLRAEDTAVYYCAKVRAGIDPTASDVWGQGTLVTVSSGGGGSGGGGSGGGGSGGGGSELQSVLTQPPSASGTPGQRVTISCSGSTSNIGRNYVYWYQQLPGTAPKLLIYRTNQRPSGVPDRFSGSKSGTSASLAISGLRSEDEADYYCAAWDDSLSGRVFGTGTKLTVLTTTPAPRPPTPAPTIASQPLSLRPEACRPAAGGAVHTRGLDFACDIYIWAPLAGTCGVLLLSLVITLYCKRGRKKLLYIFKQPFMRPVQTTQEEDGCSCRFPEEEEGGCELRVKFSRSADAPAYQQGQNQLYNELNLGRREEYDVLDKRRGRDPEMGGKPRRKNPQEGLYNELQKDKMAEAYSEIGMKGERRRGKGHDGLYQGLSTATKDTYDALHMQALPPR
notes: as for B1
Activation ratio (WT/KO) [3]: 12 | Protein binding (%) [4]: 2.39%

B4: P12G07 CD70-specific CAR (other)
chain: EVQLLESGGGLVQPGGSLRLSCAASGFTFNNFAMSWVRQAPGKGLEWVSGISGSGDNTYYADSVKGRFTISRDNSKNTLYLQMNSLRAEDTAVYYCAKDRDIGLGWYSYYLDVWGQGTLVTVSSGGGGSGGGGSGGGGSGGGGSELQSVLTQPPSASGTPGQRVTISCSGSSSNIGSNYVYWYQQLPGTAPKPLIYMNNQRPSGVPDRFSGSKSGTSASLAISGLRSEDEADYYCAAWDDSLSAVVFGTGTKLTVLTTTPAPRPPTPAPTIASQPLSLRPEACRPAAGGAVHTRGLDFACDIYIWAPLAGTCGVLLLSLVITLYCKRGRKKLLYIFKQPFMRPVQTTQEEDGCSCRFPEEEEGGCELRVKFSRSADAPAYQQGQNQLYNELNLGRREEYDVLDKRRGRDPEMGGKPRRKNPQEGLYNELQKDKMAEAYSEIGMKGERRRGKGHDGLYQGLSTATKDTYDALHMQALPPR
notes: as for B1
Activation ratio (WT/KO) [3]: 11.6 | Protein binding (%) [4]: 15.5%

B5: P15D02 CD70-specific CAR (other)
chain: EVQLVQSGAEVKKPGESLKISCKGSGYSFASYWIGWVRQMPGKGLEWMGVIYPGTSETRYSPSFQGQVTISADKSISTAYLQWSSLKASDTAMYYCAKGLSASASGYSFQYWGQGTLVTVSSGGGGSGGGGSGGGGSGGGGSELDIQMTQSPSSLSASVGDRVTITCRASQSIDTYLNWYQQKPGKAPKLLIYSASSLHSGVPSRFSGSGSGTDFTLTISSLQPEDFATYYCQQSYSTTAWTFGQGTKVEIKTTTPAPRPPTPAPTIASQPLSLRPEACRPAAGGAVHTRGLDFACDIYIWAPLAGTCGVLLLSLVITLYCKRGRKKLLYIFKQPFMRPVQTTQEEDGCSCRFPEEEEGGCELRVKFSRSADAPAYQQGQNQLYNELNLGRREEYDVLDKRRGRDPEMGGKPRRKNPQEGLYNELQKDKMAEAYSEIGMKGERRRGKGHDGLYQGLSTATKDTYDALHMQALPPR
notes: as for B1
Activation ratio (WT/KO) [3]: 2.6 | Protein binding (%) [4]: 62%

B6: 17G6 CD70-specific CAR (other)
chain: EVQLVESGGGLVQPGGSLRLSCVASGFTFSSYWMSWVRQAPGKGLEWVASIKQDGSEKYYVDSVKGRFTISRDNAKNSVYLQMNSLRAEDTGVYYCAREGVNWGWRLYWHFDLWGRGTLVTVSSGGGGSGGGGSGGGGSGGGGSDIVMTQSPDSLAVSLGERATINCKSSQSVLYSYNNKNYVAWYQQKPGQPPNLLIFWASTRESGVPDRFSGSGSGTDFTLTISSLQAEDVAVYYCQQYYSTLTFGGGTKVEIKTTTPAPRPPTPAPTIASQPLSLRPEACRPAAGGAVHTRGLDFACDIYIWAPLAGTCGVLLLSLVITLYCKRGRKKLLYIFKQPFMRPVQTTQEEDGCSCRFPEEEEGGCELRVKFSRSADAPAYQQGQNQLYNELNLGRREEYDVLDKRRGRDPEMGGKPRRKNPQEGLYNELQKDKMAEAYSEIGMKGERRRGKGHDGLYQGLSTATKDTYDALHMQALPPR
notes: as for B1
Activation ratio (WT/KO) [1]: 6.84 | Protein binding (%) [2]: 37.6%

B7: P13F04 CD70-specific CAR (other)
chain: QVQLVQSGAEVKKPGSSVKVSCKASGGTFSSYAISWVRQAPGQGLEWMGEIIPIFGTASYAQKFQGRVTITADESTSTAYMELSSLRSEDTAVYYCARAGWDDSWFDYWGQGTLVTVSSGGGGSGGGGSGGGGSGGGGSELQSVLTQPPSASGTPGQRVTISCSGSNSNIGTNYVSWYQQLPGTAPKLLIYRSSRRPSGVPDRFSGSKSGTSASLAISGLRSEDEADYYCAAWDGSLSGHWVFGTGTKLTVLTTTPAPRPPTPAPTIASQPLSLRPEACRPAAGGAVHTRGLDFACDIYIWAPLAGTCGVLLLSLVITLYCKRGRKKLLYIFKQPFMRPVQTTQEEDGCSCRFPEEEEGGCELRVKFSRSADAPAYQQGQNQLYNELNLGRREEYDVLDKRRGRDPEMGGKPRRKNPQEGLYNELQKDKMAEAYSEIGMKGERRRGKGHDGLYQGLSTATKDTYDALHMQALPPR
notes: as for B1
Activation ratio (WT/KO) [3]: 4.32 | Protein binding (%) [4]: 37.5%

B8: P12B09 CD70-specific CAR (other)
chain: EVQLLESGGGLVQPGGSLRLSCAASGFTFSQYSMSWVRQAPGKGLEWVSAISGGGVSTYYADSVKGRFTISRDNSKNTLYLQMNSLRAEDTAVYYCASDISDSGGSHWYFDYWGQGTLVTVSSGGGGSGGGGSGGGGSGGGGSELDIQMTQSPSSLSASVGDRVTITCRASQYIGRYLNWYQQKRGKAPKLLIHGATSLASGVPSRFSGSGSGTDFTLTISSLQPEDFATYYCQQSYSTTSPTFGQGTKVEIKTTTPAPRPPTPAPTIASQPLSLRPEACRPAAGGAVHTRGLDFACDIYIWAPLAGTCGVLLLSLVITLYCKRGRKKLLYIFKQPFMRPVQTTQEEDGCSCRFPEEEEGGCELRVKFSRSADAPAYQQGQNQLYNELNLGRREEYDVLDKRRGRDPEMGGKPRRKNPQEGLYNELQKDKMAEAYSEIGMKGERRRGKGHDGLYQGLSTATKDTYDALHMQALPPR
notes: as for B1
Activation ratio (WT/KO) [3]: 4.34 | Protein binding (%) [4]: 5.74%

B9: 40E3 CD70-specific CAR (other)
chain: QVQLQESGPGLVKPSETLSLTCTVSGGSISSYYWNWIRQPPGKGLEWIGYIYYSGSTNYNPSLKSRVTISVDTSKNQFSLKLRSVTAADTAVYYCARDIRTWGQGTLVTVSSGGGGSGGGGSGGGGSGGGGSDIQMTQSPSSLSASVGDRVTITCRASQGISNYLAWFQQKPGKAPKSLIYAASSLQSGVPSKFSGSGSGTDFTLTISSLQPEDFATYYCQQYNSYPLTFGGGTKVEIKTTTPAPRPPTPAPTIASQPLSLRPEACRPAAGGAVHTRGLDFACDIYIWAPLAGTCGVLLLSLVITLYCKRGRKKLLYIFKQPFMRPVQTTQEEDGCSCRFPEEEEGGCELRVKFSRSADAPAYQQGQNQLYNELNLGRREEYDVLDKRRGRDPEMGGKPRRKNPQEGLYNELQKDKMAEAYSEIGMKGERRRGKGHDGLYQGLSTATKDTYDALHMQALPPR
Activation ratio (WT/KO) [1]: 2.09
